According to PMC10341547:

How the values were obtained:
[1] = molecular target: large-conductance calcium-activated potassium (BKCa) channel alpha subunit (rat (endogenous in mesenteric arteries)) (UniProt Q62976)
[2] = molecular target: large-conductance calcium-activated potassium (BKCa) channel alpha subunit (rat (endogenous in mesenteric arteries)) (UniProt Q62976); remark: listed apart in the source

Sequence of inositol 1,4,5-trisphosphate receptor 1, P29994 1-2750 (natural protein) (P29994 whole entry): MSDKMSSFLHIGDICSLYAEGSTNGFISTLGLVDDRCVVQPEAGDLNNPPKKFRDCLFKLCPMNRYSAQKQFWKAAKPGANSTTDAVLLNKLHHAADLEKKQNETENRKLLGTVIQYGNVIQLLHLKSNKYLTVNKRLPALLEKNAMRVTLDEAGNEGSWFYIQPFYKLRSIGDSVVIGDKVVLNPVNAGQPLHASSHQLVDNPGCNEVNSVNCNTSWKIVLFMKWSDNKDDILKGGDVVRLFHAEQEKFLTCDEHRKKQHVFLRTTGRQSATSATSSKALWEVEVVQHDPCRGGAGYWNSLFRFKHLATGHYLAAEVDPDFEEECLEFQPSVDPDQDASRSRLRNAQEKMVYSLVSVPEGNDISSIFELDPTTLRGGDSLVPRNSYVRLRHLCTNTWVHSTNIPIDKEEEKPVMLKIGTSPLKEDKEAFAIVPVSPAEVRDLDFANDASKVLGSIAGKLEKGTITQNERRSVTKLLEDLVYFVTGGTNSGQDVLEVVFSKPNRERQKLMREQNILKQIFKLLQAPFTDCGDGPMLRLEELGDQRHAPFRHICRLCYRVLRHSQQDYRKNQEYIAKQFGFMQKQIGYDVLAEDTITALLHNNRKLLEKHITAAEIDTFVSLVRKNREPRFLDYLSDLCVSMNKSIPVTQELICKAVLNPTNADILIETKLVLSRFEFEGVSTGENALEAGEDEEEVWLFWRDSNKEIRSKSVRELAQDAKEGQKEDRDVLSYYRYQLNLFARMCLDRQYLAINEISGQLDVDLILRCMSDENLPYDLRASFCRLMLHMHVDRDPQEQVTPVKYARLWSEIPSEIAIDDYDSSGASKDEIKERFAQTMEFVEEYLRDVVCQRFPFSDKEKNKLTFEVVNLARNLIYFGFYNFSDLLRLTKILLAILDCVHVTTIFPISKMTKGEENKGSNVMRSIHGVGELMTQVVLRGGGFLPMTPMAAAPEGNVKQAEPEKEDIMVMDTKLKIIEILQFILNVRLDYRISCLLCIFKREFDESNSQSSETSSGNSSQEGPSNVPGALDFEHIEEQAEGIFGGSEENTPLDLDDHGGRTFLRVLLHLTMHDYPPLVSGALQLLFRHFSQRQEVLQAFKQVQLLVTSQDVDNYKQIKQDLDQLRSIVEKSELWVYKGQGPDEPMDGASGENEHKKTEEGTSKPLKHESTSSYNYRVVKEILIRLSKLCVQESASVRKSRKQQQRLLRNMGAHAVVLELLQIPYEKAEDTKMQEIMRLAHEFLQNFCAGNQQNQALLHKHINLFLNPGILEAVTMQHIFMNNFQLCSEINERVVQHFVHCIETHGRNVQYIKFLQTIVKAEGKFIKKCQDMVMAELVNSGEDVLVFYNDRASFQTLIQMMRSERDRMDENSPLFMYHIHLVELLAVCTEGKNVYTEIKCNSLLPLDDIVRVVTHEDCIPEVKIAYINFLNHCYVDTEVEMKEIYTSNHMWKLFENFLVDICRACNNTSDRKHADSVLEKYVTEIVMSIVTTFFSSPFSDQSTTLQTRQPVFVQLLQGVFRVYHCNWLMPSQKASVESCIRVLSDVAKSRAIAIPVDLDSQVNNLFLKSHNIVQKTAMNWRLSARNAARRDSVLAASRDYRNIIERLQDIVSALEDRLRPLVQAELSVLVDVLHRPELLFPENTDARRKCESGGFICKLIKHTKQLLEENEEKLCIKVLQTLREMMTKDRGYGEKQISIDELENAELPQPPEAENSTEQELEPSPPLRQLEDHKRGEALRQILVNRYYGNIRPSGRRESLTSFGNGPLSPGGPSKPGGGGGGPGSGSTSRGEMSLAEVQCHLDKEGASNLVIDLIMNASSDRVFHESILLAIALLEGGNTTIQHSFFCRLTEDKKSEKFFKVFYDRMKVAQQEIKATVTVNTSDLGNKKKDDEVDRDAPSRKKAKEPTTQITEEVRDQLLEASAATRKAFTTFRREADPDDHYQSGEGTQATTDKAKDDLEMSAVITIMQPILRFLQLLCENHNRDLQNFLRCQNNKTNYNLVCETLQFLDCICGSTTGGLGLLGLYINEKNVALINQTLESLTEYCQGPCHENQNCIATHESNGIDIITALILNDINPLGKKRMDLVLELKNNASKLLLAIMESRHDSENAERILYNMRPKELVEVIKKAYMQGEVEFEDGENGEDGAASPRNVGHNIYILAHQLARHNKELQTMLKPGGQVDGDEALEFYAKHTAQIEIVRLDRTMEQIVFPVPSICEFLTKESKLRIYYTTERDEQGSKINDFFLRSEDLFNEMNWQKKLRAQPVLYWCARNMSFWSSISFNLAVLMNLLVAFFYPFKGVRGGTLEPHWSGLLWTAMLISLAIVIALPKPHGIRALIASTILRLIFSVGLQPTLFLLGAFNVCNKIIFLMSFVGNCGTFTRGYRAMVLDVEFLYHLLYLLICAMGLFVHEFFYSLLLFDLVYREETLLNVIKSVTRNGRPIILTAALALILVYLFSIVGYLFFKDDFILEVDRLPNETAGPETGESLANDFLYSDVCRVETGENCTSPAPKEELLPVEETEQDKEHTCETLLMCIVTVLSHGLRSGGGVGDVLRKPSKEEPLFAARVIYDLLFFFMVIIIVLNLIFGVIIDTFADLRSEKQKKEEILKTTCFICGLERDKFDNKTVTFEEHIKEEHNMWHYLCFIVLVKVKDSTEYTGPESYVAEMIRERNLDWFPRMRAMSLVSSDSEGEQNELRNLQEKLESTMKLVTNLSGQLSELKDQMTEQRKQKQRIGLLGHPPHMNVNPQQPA
Sequence of large-conductance calcium-activated potassium (BKCa) channel alpha subunit (rat (endogenous in mesenteric arteries)) (Q62976 whole entry): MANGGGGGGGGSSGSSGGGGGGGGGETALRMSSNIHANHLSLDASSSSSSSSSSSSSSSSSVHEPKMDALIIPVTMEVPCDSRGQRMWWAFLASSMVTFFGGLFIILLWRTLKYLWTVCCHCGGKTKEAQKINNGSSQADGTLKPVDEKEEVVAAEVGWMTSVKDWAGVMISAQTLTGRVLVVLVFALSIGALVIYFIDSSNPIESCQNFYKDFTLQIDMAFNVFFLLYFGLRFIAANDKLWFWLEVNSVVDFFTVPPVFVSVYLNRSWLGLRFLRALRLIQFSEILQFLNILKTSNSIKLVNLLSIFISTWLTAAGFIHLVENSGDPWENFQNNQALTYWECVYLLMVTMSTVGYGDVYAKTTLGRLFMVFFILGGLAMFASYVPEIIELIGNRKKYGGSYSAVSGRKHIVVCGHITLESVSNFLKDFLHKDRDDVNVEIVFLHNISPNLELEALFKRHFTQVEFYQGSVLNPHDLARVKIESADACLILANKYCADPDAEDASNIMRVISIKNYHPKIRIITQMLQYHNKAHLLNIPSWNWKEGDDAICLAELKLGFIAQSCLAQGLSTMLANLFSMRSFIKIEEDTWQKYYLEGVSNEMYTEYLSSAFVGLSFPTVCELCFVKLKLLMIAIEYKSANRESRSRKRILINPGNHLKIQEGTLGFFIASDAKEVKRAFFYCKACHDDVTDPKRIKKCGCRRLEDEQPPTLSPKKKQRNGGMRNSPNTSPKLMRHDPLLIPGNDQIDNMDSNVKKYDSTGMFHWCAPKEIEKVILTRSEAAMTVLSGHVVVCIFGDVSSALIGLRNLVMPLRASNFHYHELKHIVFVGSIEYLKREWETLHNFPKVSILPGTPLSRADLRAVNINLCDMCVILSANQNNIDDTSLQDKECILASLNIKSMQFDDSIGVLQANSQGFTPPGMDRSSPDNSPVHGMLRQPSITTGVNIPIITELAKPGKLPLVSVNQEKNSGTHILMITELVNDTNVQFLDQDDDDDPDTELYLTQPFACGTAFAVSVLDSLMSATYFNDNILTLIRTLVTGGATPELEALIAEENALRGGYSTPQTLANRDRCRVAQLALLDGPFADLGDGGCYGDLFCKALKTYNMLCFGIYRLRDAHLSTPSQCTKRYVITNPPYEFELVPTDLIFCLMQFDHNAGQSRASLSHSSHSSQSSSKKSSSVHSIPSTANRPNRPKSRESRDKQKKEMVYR

- whole-cell BKCa current density at +60 mV in mesenteric VSMCs of WKY rats before and after the IP3R agonist Adenophostin A [1]: 142 pA/pF
- whole-cell BKCa current density at +60 mV in mesenteric VSMCs of SHR before and after the IP3R agonist Adenophostin A [2]: 65.6 pA/pF
Substance: inositol 1,4,5-trisphosphate receptor 1, P29994 1-2750 (natural protein)
